Paper PMC4156411

Columns and labels:
Experiment in all cases: ELASA
Conditions in all cases: ELASA: VLPs 3 ug/ml coated, blocked with 5% skim milk in PBST plus unrelated DNA, 1 uM biotinylated aptamer (10 nM-2 uM for Kd), 1 h at RT, PBST washes
[1] = tested on: GI.4 VLP, major capsid protein (Human norovirus GI.4)
[2] = tested on: GI.6 VLP, major capsid protein (Human norovirus GI.6)
[3] = tested on: GI.7 VLP, major capsid protein (Human norovirus GI.7)
[4] = tested on: GI.8 VLP, major capsid protein (Human norovirus GI.8)
[5] = tested on: GII.1 VLP, major capsid protein (Human norovirus GII.1)
[6] = tested on: GII.12 VLP, major capsid protein (Human norovirus GII.12)
[7] = tested on: GII.17 VLP, major capsid protein (Human norovirus GII.17)
[8] = biological target: T1, GII.2 (SMV) VLP, major capsid protein (Human norovirus GII.2 (Snow Mountain virus)) (UniProt K7X601)
T1 sequence: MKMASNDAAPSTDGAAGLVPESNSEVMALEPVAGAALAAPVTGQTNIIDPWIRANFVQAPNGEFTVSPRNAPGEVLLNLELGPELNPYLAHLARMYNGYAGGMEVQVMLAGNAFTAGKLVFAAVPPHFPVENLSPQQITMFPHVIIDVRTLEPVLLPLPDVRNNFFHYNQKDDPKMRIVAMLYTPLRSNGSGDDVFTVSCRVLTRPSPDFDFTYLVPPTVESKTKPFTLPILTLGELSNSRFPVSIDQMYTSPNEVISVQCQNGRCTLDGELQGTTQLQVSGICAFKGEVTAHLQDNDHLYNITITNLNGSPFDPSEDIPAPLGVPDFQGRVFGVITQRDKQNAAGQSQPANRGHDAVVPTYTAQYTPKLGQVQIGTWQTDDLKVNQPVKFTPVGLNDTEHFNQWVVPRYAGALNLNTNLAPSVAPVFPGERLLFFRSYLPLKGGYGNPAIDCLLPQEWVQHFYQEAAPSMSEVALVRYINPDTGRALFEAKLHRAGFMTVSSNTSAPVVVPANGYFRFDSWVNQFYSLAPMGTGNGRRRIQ

[9] = tested on: GII.3 VLP, major capsid protein (Human norovirus GII.3)
[10] = tested on: GII.4 (Grimsby) VLP, major capsid protein (Human norovirus GII.4 (Grimsby virus))
[11] = tested on: GII.4 (Houston) VLP, major capsid protein (Human norovirus GII.4 (Houston))
[12] = tested on: GII.6 VLP, major capsid protein (Human norovirus GII.6)
[13] = tested on: GII.7 VLP, major capsid protein (Human norovirus GII.7)

Row | Sequence | binding signal [1] [T/N ratio] | binding signal [2] [T/N ratio] | binding signal [3] [T/N ratio] | binding signal [4] [T/N ratio] | binding signal [5] [T/N ratio] | binding signal [6] [T/N ratio] | binding signal [7] [T/N ratio] | Kd [8] [nM] | binding signal [8] [T/N ratio] | binding signal [9] [T/N ratio] | binding signal [10] [T/N ratio] | binding signal [11] [T/N ratio] | binding signal [12] [T/N ratio] | binding signal [13] [T/N ratio]
1 | AGTATACGTATTACCTGCAGCCATCTGTGTGAAGACTATATGGCGCTCACATATTTCTTTCCGATATCTCGGAGATCTTGC [SMV-25] | 5.6 | 2.4 | 3.5 | 6.2 | 9.4 | 1.9 | 2 | 232 | 12.4 | 5.4 | 10.4 | 11 | 7.3 | 9.1
2 | AGTATACGTATTACCTGCAGCTGACCGAGTGTCTGGTCATTTTCGATGTCTGTTGTTAGGCCGATATCTCGGAGATCTTGC [SMV-26] | 1.1 | 1.5 | 1.8 | 1.2 | 2.1 | 2.4 | 1.3 | 281 | 4.1 | 2.4 | 3.2 | 2.8 | 2.8 | 2.8
3 | AGTATACGTATTACCTGCAGCCCATGTTTTGTAGGTGTAATAGGTCATGTTAGGGTTTCTGCGATATCTCGGAGATCTTGC [SMV-21] | 4.3 | 3.8 | 8.1 | 4.6 | 8.6 | 6.6 | 12.2 | 101 | 18.1 | 11.8 | 6.4 | 11.3 | 3 | 13.5
4 | AGTATACGTATTACCTGCAGCCACCAGTGTGTTGAGGTTTGAGCACACTGATAGAGTGTCACGATATCTCGGAGATCTTGC [SMV-19] | 1.7 | 3.7 | 10.3 | 1.7 | 7.1 | 1.5 | 3 | 191 | 12.9 | 1.7 | 9.6 | 12.5 | 1.8 | 4
